Measurements reported in patent US20260001914A1, “MACROCYCLIC PEPTIDES TARGETING KRAS” (Merck Sharp & Dohme LLC, priority 2022, published 2026).
*1 amine or outer side, *2 acyl side, *3 side chain or, on linkers, in order; H or OH if unused. Where a SMILES comes first, the peptide text is derived from it. [ ]: non-standard residue; d: D form. X29 = CC(=O)N(C)CCC[C@@H](C(=O)[*:2])N(C)[*:1]; X10 = CS(=O)(=O)CCCCN(CC(=O)[*:2])[*:1]; Phe(2-F) = N[C@@H](Cc1ccccc1F)C(=O)O; NMe3Pal = CN[C@@H](Cc1cccnc1)C(=O)O; X1 = O=C(C12CC(CN[*:1])(C1)C2)[*:2]; NMeAad = CN[C@@H](CCCC(=O)O)C(=O)O; PhLac = O=C(O)[C@@H](O)Cc1ccccc1; 3Pal = N[C@@H](Cc1cccnc1)C(=O)O; NMeAbu = CC[C@H](NC)C(=O)O; Nle = CCCC[C@H](N)C(=O)O

Tests used:
[1] = biological target: phosphorylation levels of ERK1/2 in AsPC-1 (homozygous KRAS-G12D) cells (Homo sapiens, UniProt P01116, G12D); assay: Cellular phospho-ERK assay in AsPC-1 cells (Alpha Screen), assay medium without fetal bovine serum; assay type: cell-based; conditions: phospho-ERK AlphaScreen, 18 h;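 also: signal taken as phospho-ERK over total ERK per well, both detected in one multiplex bead assay, EC50 from four-parameter logistic fit of dose-response curves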
[2] = biological target: KRAS-G12D in AsPC-1 cells (UniProt P01116); assay: cell-based or functional assay
[3] = biological target: Biotin-labeled KRAS-G12D protein (UniProt P01116-2 1-169, limits assumed, biotin label (site not stated); loaded with BODIPY-GDP); assay: cell-based or functional assay

Row | Compound | EC50 [1] | AlphaScreen @18 h, EC50 [2] | SOS assay EC50 [3]
1 | CCCC[C@@H]1NC(=O)[C@H](Cc2cccnc2)NC(=O)[C@H](CC)N(C)C(=O)[C@H](Cc2ccccc2)OC(=O)C23CC(CNC(=O)[C@H](Cc4cccnc4)N(C)C(=O)[C@H](CCCC)NC(=O)[C@H](Cc4ccccc4F)NC1=O)(C2)C3 [compound 404, cyclo(FLac-NMeAbu-3Pal-Nle-Phe2F-Nle-NMe3Pal-amBCP)] (cyclo([3Pal][Nle][Phe(2-F)][Nle][NMe3Pal][X1][PhLac][NMeAbu])) | 31 µM | – | –
2 | CCCC[C@@H]1NC(=O)[C@H](Cc2cccnc2)NC(=O)[C@H](CCCN(C)C(C)=O)N(C)C(=O)[C@H](Cc2ccccc2)OC(=O)C23CC(CNC(=O)[C@H](Cc4cccnc4)N(C)C(=O)[C@H](CCCC)NC(=O)[C@H](Cc4ccccc4F)NC1=O)(C2)C3 [compound 405, cyclo(FLac-NMeOrnAc-3Pal-Nle-Phe2F-Nle-NMe3Pal-amBCP)] (cyclo([3Pal][Nle][Phe(2-F)][Nle][NMe3Pal][X1][PhLac][X29])) | > 50.8 µM | – | –
3 | CCCC[C@@H]1NC(=O)[C@H](Cc2cccnc2)NC(=O)CN(CCCCS(C)(=O)=O)C(=O)[C@H](Cc2ccccc2)OC(=O)C23CC(CNC(=O)[C@H](Cc4cccnc4)N(C)C(=O)[C@H](CCCC)NC(=O)[C@H](Cc4ccccc4F)NC1=O)(C2)C3 [compound 407, cyclo(FLac-NOHmsbGly-3Pal-Nle-Phe2F-Nle-NMe3Pal-amBCP)] (cyclo([3Pal][Nle][Phe(2-F)][Nle][NMe3Pal][X1][PhLac][X10])) | > 50.8 µM | – | –
4 | CCCC[C@@H]1NC(=O)[C@H](Cc2cccnc2)NC(=O)[C@H](CCCC(=O)N(C)C)N(C)C(=O)[C@H](Cc2ccccc2)OC(=O)C23CC(CNC(=O)[C@H](Cc4cccnc4)N(C)C(=O)[C@H](CCCC)NC(=O)[C@H](Cc4ccccc4F)NC1=O)(C2)C3 [compound 408, cyclo(FLac-hQdm-3Pal-Nle-Phe2F-Nle-NMe3Pal-amBCP)] (cyclo([3Pal][Nle][Phe(2-F)][Nle][NMe3Pal][X1][PhLac][NMeAad](NMe2))) | > 50.8 µM | – | –
5 | cyclo(1Nal-R-K-Nle-Phe3COOH-Nle-NMeF-Cysteamine-C1Ac) (peptide) | – | > 50.9 µM | 2120 nM
6 | cyclo(3Pal-NMeA-3Pal-Nle-Phe2F-Nle-NMe3Pal-amBCP) (peptide) | – | > 50.9 µM | 3060 nM
7 | cyclo(4F3Pal-NMeA-3Pal-Nle-Phe2F-Nle-NMe3Pal-amBCP) (peptide) | – | > 50.9 µM | 1780 nM
8 | cyclo(4Me3Pal-NMeA-3Pal-Nle-Phe2F-Nle-NMe3Pal-amBCP) (peptide) | – | > 50.9 µM | 2890 nM
9 | cyclo(CPhe-NMeA-PyrimAla-cPrA-Phe2F-Nle3F2-NMeF-MeOximamBCP) isomer 1 (peptide) | – | 3.4 µM | 51 nM
10 | cyclo(CPhe-NMeA-PyrimAla-cPrA-Phe2F-Nle3F2-NMeF-MeOximamBCP) isomer 2 (peptide) | – | 0.128 µM | 1.7 nM
11 | cyclo(F-DabN3~3Pal-cBuA-V-Nle-NMe3Pal-amBCP) (peptide) | – | > 50.9 µM | 6560 nM
12 | cyclo(F-NMeA-3Pal-Nle-Phe2F-Nle-NMeF-aMeC1-C1Ac) (peptide) | – | 21 µM | –
13 | cyclo(F-NMeA-3Pal-cBuA-TyrOMe-Ahp-NMeF-aMeC1-C1Ac) (peptide) | – | > 50.9 µM | 146 nM
14 | cyclo(F-NMeA~3Pal-Nle-Phe2F-Nle-NMe3Pal-amBCP) (peptide) | – | > 50.9 µM | 313 nM
15 | cyclo(F-NMeDabN3-3Pal-NleLac-Phe2F-Nle-NMe3Pal-amBCP) (peptide) | – | > 50.9 µM | 3880 nM
16 | cyclo(F-NMeR-3Pal-Nle-TyrOMe-LysN3-NMeF-tamcPr) (peptide) | – | > 50.9 µM | 224 nM
17 | cyclo(F-R-3Pal-Nle-Phe2F-Nle-NMeF-aMeC1-C1Ac) (peptide) | – | > 50.9 µM | 12.8 nM
18 | cyclo(F-R-3Pal-cBuA-NvaOMe-Nle-NMeF-aMeC1-C1Ac (peptide) | – | > 50.9 µM | 4410 nM
19 | cyclo(FLac-AlaCN-3Pal-Nle-Phe2F-Nle-NMe3Pal-amBCP) (peptide) | – | > 50.9 µM | 3750 nM

Row | Compound | EC50 [1] | AlphaScreen @18 h, EC50 [2] | SOS assay EC50 [3]
20 | cyclo(FLac-NMeA-3Pal2F-Nle-Phe2F-Nle-NMe3Pal-amBCP) (peptide) | – | 50.2 µM | 1450 nM
21 | cyclo(FLac-NMeA-3Pal-Nle-Phe2F-Nle-NMe3Pal-amBCP) (peptide) | – | 7.3 µM | 36 nM
22 | cyclo(FLac-NMeA-3Pal-Nle-Phe2F-Nle-NMeCha-amBCP) (peptide) | – | > 50.9 µM | 2940 nM
23 | cyclo(FLac-NMeA-3Pal-Nle-Phe2F-Nle-NMeF-amBCP) (peptide) | – | 1.44 µM | 50.3 nM
24 | cyclo(FLac-NMeA-3Pal-Nle-Phe2F-Nva-NMe3Pal-amBCP) (peptide) | – | > 50.9 µM | 154 nM
25 | cyclo(FLac-NMeA-3Pal-Nle-Phe2F-hL-NMe3Pal-amBCP) (peptide) | – | 4.65 µM | 2.17 nM
26 | cyclo(FLac-NMeA-3Pal-NvaF-Phe2F-Nle-NMe3Pal-amBCP) (peptide) | – | > 50.9 µM | 35.1 nM
27 | cyclo(FLac-NMeA-3Pal-cBuA-TyrOMe-Ahp-NMeF-amBCP) (peptide) | – | 0.886 µM | 37.9 nM
28 | cyclo(FLac-NMeA-4F3Pal-Nle-2Pal6F-Nle-NMeF-amBCP) (peptide) | – | > 50.9 µM | 870 nM
29 | cyclo(FLac-NMeA-4F3Pal-Nle-Phe2F-Nle-NMe3Pal-amBCP) (peptide) | – | 11.8 µM | 18.7 nM
30 | cyclo(FLac-NMeA-4F3Pal-Nle-Phe2F-Nle-NMeF-amBCP) (peptide) | – | 0.589 µM | 72.4 nM
31 | cyclo(FLac-NMeA-4F3Pal-Nle-Phe2F-Nva-NMeF-amBCP) (peptide) | – | > 50.9 µM | 997 nM
32 | cyclo(FLac-NMeA-PyrimAla-L-Phe2F-Nle-NMe3Pal-amBCP) (peptide) | – | > 50.9 µM | 4.38 nM
33 | cyclo(FLac-NMeA-PyrimAla-Leu3F-Phe2F-hL-NMeF-amBCP) (peptide) | – | 7.73 µM | 114 nM
34 | cyclo(FLac-NMeA-PyrimAla-Nle-2Pal6F-Nle-NMeF-amBCP) (peptide) | – | 48.7 µM | 559 nM
35 | cyclo(FLac-NMeA-PyrimAla-Nle-Phe2F-Nle-NMe3Pal-SMeamBCP) (peptide) | – | 23.4 µM | 33.5 nM
36 | cyclo(FLac-NMeA-PyrimAla-Nle-Phe2F-Nle-NMe3Pal-amBCP) (peptide) | – | 13.4 µM | 33.6 nM
37 | cyclo(FLac-NMeA-PyrimAla-Nle-Phe2F-Nle-NMeF-amBCP) (peptide) | – | 0.59 µM | 17.4 nM
38 | cyclo(FLac-NMeA-PyrimAla-Nle-Phe2F-Nle-NMePhe3F-amBCP) (peptide) | – | 0.734 µM | 12.2 nM

Row | Compound | EC50 [1] | AlphaScreen @18 h, EC50 [2] | SOS assay EC50 [3]
39 | cyclo(FLac-NMeA-PyrimAla-Nle-Phe2F-Nle-NMePhe3Me-amBCP) (peptide) | – | 0.256 µM | 6.03 nM
40 | cyclo(FLac-NMeA-PyrimAla-Nle-Phe2F-Nle-NMePhe4F-amBCP) (peptide) | – | 0.994 µM | 12.5 nM
41 | cyclo(FLac-NMeA-PyrimAla-Nle-Phe2F-Nle-NMePhe4Me-amBCP) (peptide) | – | 0.223 µM | 19.1 nM
42 | cyclo(FLac-NMeA-PyrimAla-Nle-Phe2F-Nle-NMeYOMe-amBCP) (peptide) | – | 0.439 µM | 11 nM
43 | cyclo(FLac-NMeA-PyrimAla-Nle-Phe2F-NleF-NMeF-amBCP) (peptide) | – | 2.33 µM | 10.1 nM
44 | cyclo(FLac-NMeA-PyrimAla-Nle-Phe2F-Nlecalken3Pal-amBCP) (peptide) | – | 11.2 µM | 590 nM
45 | cyclo(FLac-NMeA-PyrimAla-Nle-Phe2F-hL-NMeF-amBCP) (peptide) | – | 1.11 µM | 7.87 nM
46 | cyclo(FLac-NMeA-PyrimAla-NleF-Phe2F-Nle-NMeF-amBCP) (peptide) | – | 2.03 µM | 2.43 nM
47 | cyclo(FLac-NMeA-PyrimAla-NleF-Phe2F-NleF-NMeF-amBCP) (peptide) | – | 3.72 µM | 37.4 nM
48 | cyclo(FLac-NMeA-PyrimAla-NvaF-Phe2F-hL-NMeF-amBCP) (peptide) | – | 2.26 µM | 7.79 nM
49 | cyclo(FLac-NMeA-PyrimAla-cBuA-Phe2F-Nle3F2-NMeF-amBCP) (peptide) | – | 0.542 µM | 2.39 nM
50 | cyclo(FLac-NMeA-PyrimAla-cBuA-Phe2F-Nle-NMe3Pal-amBCP) (peptide) | – | 45 µM | –
51 | cyclo(FLac-NMeA-PyrimAla-cBuA-Phe2F-hL3F-NMeF-amBCP) (peptide) | – | 0.674 µM | 1.87 nM
52 | cyclo(FLac-NMeA-PyrimAla-cBuA-Phe2F-hL-NMeF-amBCP) (peptide) | – | 0.33 µM | 6.47 nM
53 | cyclo(FLac-NMeA-PyrimAla-cBuA-Phe2F-hcPrA-NMeF-amBCP) (peptide) | – | 0.437 µM | 4 nM
54 | cyclo(FLac-NMeA-PyrimAla-cBuA-Phe26F2-hL-NMeF-amBCP) (peptide) | – | 0.355 µM | –
55 | cyclo(FLac-NMeA-PyrimAla-cPeA-Phe2F-Nle-NMe3Pal-amBCP) (peptide) | – | 17.4 µM | 22.3 nM
56 | cyclo(FLac-NMeA-PyrimAla-cPeA-Phe2F-hL-NMeF-amBCP) (peptide) | – | 0.285 µM | 4.13 nM
57 | cyclo(FLac-NMeA-PyrimAla-cPrA-3Pal2F-hL-NMeF-amBCP) (peptide) | – | 4.18 µM | 31 nM
